The source of these data is paper PMC5494602.

The experiment addresses Flag-TRAF3 (TNF receptor-associated factor 3, full length) (human (by the printed RefSeq NM_145725)) (UniProt Q13114). The experiment is described as follows: co-IP.
UniProt Q13114, sequence (Q13114 whole entry): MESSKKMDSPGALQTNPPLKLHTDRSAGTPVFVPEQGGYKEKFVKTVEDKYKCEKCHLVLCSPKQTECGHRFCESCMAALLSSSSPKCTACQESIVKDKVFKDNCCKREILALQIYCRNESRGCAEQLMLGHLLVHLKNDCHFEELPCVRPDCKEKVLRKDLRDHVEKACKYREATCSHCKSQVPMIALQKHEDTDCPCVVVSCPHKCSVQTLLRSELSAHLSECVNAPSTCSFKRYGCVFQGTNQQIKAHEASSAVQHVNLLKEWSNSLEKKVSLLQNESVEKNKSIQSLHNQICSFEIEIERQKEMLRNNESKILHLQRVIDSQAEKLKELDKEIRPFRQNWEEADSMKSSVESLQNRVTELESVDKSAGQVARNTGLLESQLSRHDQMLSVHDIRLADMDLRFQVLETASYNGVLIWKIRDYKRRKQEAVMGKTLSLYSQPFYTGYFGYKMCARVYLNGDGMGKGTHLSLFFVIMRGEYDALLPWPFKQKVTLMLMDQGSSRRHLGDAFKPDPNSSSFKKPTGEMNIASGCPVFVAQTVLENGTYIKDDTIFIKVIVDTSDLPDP

Turning to “HA-NS1 (wild-type NS1 of H5N1/HM) (natural protein)”, the fold decrease of the MAVS-TRAF3 co-precipitate was 8.5 fold.

Substance “HA-NS1/126-225 (C-terminal effector domain fragment of H5N1/HM NS1) (domain or fragment)” had a fold decrease of the MAVS-TRAF3 co-precipitate of 4.6 fold.
